The first assay addresses anti-CD28 Fab (SEQ ID NOs: 202, 203). Put plainly: phage ELISA, Fab on plate. (ELISA stands for enzyme-linked immunosorbent assay.)
anti-CD28 Fab (SEQ ID NOs: 202, 203), sequence (VH, as listed by the source, chain 1 of 2): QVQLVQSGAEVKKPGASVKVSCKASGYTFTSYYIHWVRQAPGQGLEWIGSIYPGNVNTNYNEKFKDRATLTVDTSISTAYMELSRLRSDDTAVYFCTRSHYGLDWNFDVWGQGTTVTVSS
anti-CD28 Fab (SEQ ID NOs: 202, 203), sequence (VL, as listed by the source, chain 2 of 2): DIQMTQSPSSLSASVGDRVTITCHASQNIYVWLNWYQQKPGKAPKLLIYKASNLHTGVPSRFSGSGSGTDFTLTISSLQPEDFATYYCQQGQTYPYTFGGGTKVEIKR
Description: (§1) After panning, phage infected bacteria were plated out and colonies picked into 96 well blocks. Clonal phage was then amplified and separated from bacterial cells via centrifugation.
(§2) Clonal phage were harvested as crude supernatants and screened via standard ELISAs. […] Prior to the addition of clonal phage, wells were incubated with blocking buffer and CD28 antigen or blocking buffer alone. Without washing or aspirating, clonal phage supernatants were then added to the wells and incubated for a short time. Wells were then washed followed by detection of bound phage using a horse radish conjugated anti-M13 antibody. Clonal phage of interest were then sent for sequence analysis.
Consider TCSAGASWGWPWCL [Phage-1185], for which the “Anti-CD28 Fab signal” value was determined as 1.22.

In the case of TCAAGATWLWPWCL [Phage-1182], the “Anti-CD28 Fab signal” value came out at 1.23.

Consider LCEEFFHYSWPLCL [Phage-1190], for which the “Anti-CD28 Fab signal” value amounted to 1.21.

With TCAAGANYSWPACL [Phage-1199], the “Anti-CD28 Fab signal” value worked out at 1.14.

With TCAAGAVWTWPICF [Phage-1183], the “Anti-CD28 Fab signal” value worked out at 1.23.

Consider SCAAGAHWSWPVCF [Phage-1192], for which the “Anti-CD28 Fab signal” value was 1.2.

Regarding PCSDGVAYPWPYCV [Phage-1191], the “Anti-CD28 Fab signal” value came out at 1.2.

In the case of TCADGAFWQWPVCL [Phage-1184], the “Anti-CD28 Fab signal” value came to 1.22.

SCAAGFDYGWPMCL [Phage-1197]: the “Anti-CD28 Fab signal” value was determined as 1.16.

Take LCSAGAMYPWPVCL [Phage-1193]: the “Anti-CD28 Fab signal” value was determined as 1.19.

With SCAAGATWKWPECL [Phage-1181], the “Anti-CD28 Fab signal” value was found to be 1.24.

Consider TCAAGANWPWPECL [Phage-1189], for which the “Anti-CD28 Fab signal” value stood at 1.21.

For the molecule SCADGFNYVWPLCF [Phage-1198], the “Anti-CD28 Fab signal” value turned out to be 1.14.

Take SCSAGAGWAWPMCF [Phage-1196]: the “Anti-CD28 Fab signal” value stood at 1.16.

Consider SCSAVFSYRWPKCL [Phage-1195], for which the “Anti-CD28 Fab signal” value is 1.18.

For LCAAGATYPWPDCV [Phage-1188], the “Anti-CD28 Fab signal” value was found to be 1.21.

With SCSAGATWAWPQCF [Phage-1194], the “Anti-CD28 Fab signal” value is 1.19.

A further assay deals with T1, Anti-CD28 Fab (SEQ ID NOs: 202, 203).
T1 construct: biotinylated and captured on neutravidin coated plates in the phage ELISA
T1 sequence (VH, as listed by the source, chain 1 of 2): as the sequence (VH, as listed by the source, chain 1 of 2) above
T1 sequence (VL, as listed by the source, chain 2 of 2): as the sequence (VL, as listed by the source, chain 2 of 2) above
Put plainly: phage binding ELISA, Fab on plate.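 Note: clonal phage supernatant ELISA, wells preincubated with CD28 antigen or blocking buffer only, then bound phage detected using HRP-linked anti-M13 antibody.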
Description: as §1, §2
For the molecule SCAAVFSFPWSPCL [Phage-999], the “Anti-CD28 Fab (SEQ ID NOs: 202, 203) signal” value amounted to 1.87.

Consider TCSAGATYIWPMCF [Phage-995], for which the “Anti-CD28 Fab (SEQ ID NOs: 202, 203) signal” value turned out to be 1.9.

As to TCAAGASYPWPACL [Phage-998], the “Anti-CD28 Fab (SEQ ID NOs: 202, 203) signal” value was 1.89.

Regarding LCNAGAMYKWPTCL [Phage-987], the “Anti-CD28 Fab (SEQ ID NOs: 202, 203) signal” value turned out to be 1.94.

With LCNAGAPYKWPTCL [Phage-1050], the “Anti-CD28 Fab (SEQ ID NOs: 202, 203) signal” value was 1.66.

With TCSAGAHYPWPDCI [Phage-985], the “Anti-CD28 Fab (SEQ ID NOs: 202, 203) signal” value worked out at 1.95.

Regarding SCSAGASLQLSICL [Phage-992], the “Anti-CD28 Fab (SEQ ID NOs: 202, 203) signal” value was 1.92.

For TCSAGAGYPWPLCY [Phage-991], the “Anti-CD28 Fab (SEQ ID NOs: 202, 203) signal” value is 1.92.

For TCSAGATWPWPICL [Phage-997], the “Anti-CD28 Fab (SEQ ID NOs: 202, 203) signal” value worked out at 1.89.

For the molecule TCSAGAMWTWPYCF [Phage-989], the “Anti-CD28 Fab (SEQ ID NOs: 202, 203) signal” value is 1.93.

With TCRAGATYNWPFCL [Phage-996], the “Anti-CD28 Fab (SEQ ID NOs: 202, 203) signal” value was found to be 1.9.

MCSAGAMYPWPLCL [Phage-988]: the “Anti-CD28 Fab (SEQ ID NOs: 202, 203) signal” value stood at 1.93.

TCSAGATWAWPSCF [Phage-993]: the “Anti-CD28 Fab (SEQ ID NOs: 202, 203) signal” value is 1.92.

On to LCKPGVPNSWPTCL [Phage-984], for which the “Anti-CD28 Fab (SEQ ID NOs: 202, 203) signal” value came to 1.95.

For TCSAGFSYSWPACF [Phage-1000], the “Anti-CD28 Fab (SEQ ID NOs: 202, 203) signal” value was 1.86.

On to TCAAGAYWTWPACF [Phage-990], for which the “Anti-CD28 Fab (SEQ ID NOs: 202, 203) signal” value is 1.93.

TCSAGAHYVWPMCF [Phage-994]: the “Anti-CD28 Fab (SEQ ID NOs: 202, 203) signal” value amounted to 1.91.

A further assay has as its target anti-CD28 Fab (SEQ ID NOs: 202, 203). Put plainly: phage ELISA, Fab on plate, CD28 antigen as competitor.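 Note: wells pre-incubated with CD28 antigen in blocking buffer (reference: blocking buffer only) before adding crude clonal phage supernatant, bound phage read with HRP-coupled anti-M13 antibody.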
Description: as §1, §2
Consider TCSAGASWGWPWCL [Phage-1185], for which the “Anti-CD28 Fab signal in the presence of CD28” value (“Anti-CD28 Fab signal … of CD28” below) amounted to 0.07.

Turning to TCAAGATWLWPWCL [Phage-1182], the “Anti-CD28 Fab signal … of CD28” value came to 0.07.

Consider LCEEFFHYSWPLCL [Phage-1190], for which the “Anti-CD28 Fab signal … of CD28” value was determined as 0.06.

Turning to TCAAGANYSWPACL [Phage-1199], the “Anti-CD28 Fab signal … of CD28” value came out at 0.08.

On to TCAAGAVWTWPICF [Phage-1183], for which the “Anti-CD28 Fab signal … of CD28” value is 0.05.

For the molecule SCAAGAHWSWPVCF [Phage-1192], the “Anti-CD28 Fab signal … of CD28” value amounted to 0.08.

In the case of PCSDGVAYPWPYCV [Phage-1191], the “Anti-CD28 Fab signal … of CD28” value worked out at 0.06.

Consider TCADGAFWQWPVCL [Phage-1184], for which the “Anti-CD28 Fab signal … of CD28” value was determined as 0.07.

Consider SCAAGFDYGWPMCL [Phage-1197], for which the “Anti-CD28 Fab signal … of CD28” value was determined as 0.06.

LCSAGAMYPWPVCL [Phage-1193]: the “Anti-CD28 Fab signal … of CD28” value came to 0.08.

In the case of SCAAGATWKWPECL [Phage-1181], the “Anti-CD28 Fab signal … of CD28” value came to 0.07.

For TCAAGANWPWPECL [Phage-1189], the “Anti-CD28 Fab signal … of CD28” value was determined as 0.08.

Consider SCADGFNYVWPLCF [Phage-1198], for which the “Anti-CD28 Fab signal … of CD28” value was determined as 0.08.

In the case of SCSAGAGWAWPMCF [Phage-1196], the “Anti-CD28 Fab signal … of CD28” value was found to be 0.08.

Consider SCSAVFSYRWPKCL [Phage-1195], for which the “Anti-CD28 Fab signal … of CD28” value turned out to be 0.06.

Regarding LCAAGATYPWPDCV [Phage-1188], the “Anti-CD28 Fab signal … of CD28” value worked out at 0.05.

For the molecule SCSAGATWAWPQCF [Phage-1194], the “Anti-CD28 Fab signal … of CD28” value came out at 0.08.

Another assay deals with T1, Anti-CD28 Fab (SEQ ID NOs: 202, 203). Put plainly: phage binding ELISA, Fab on plate, CD28 as competitor.
Description: as §1, §2
With SCAAVFSFPWSPCL [Phage-999], the “Anti-CD28 Fab signal … of CD28” value amounted to 0.08.

TCSAGATYIWPMCF [Phage-995]: the “Anti-CD28 Fab signal … of CD28” value turned out to be 0.08.

Consider TCAAGASYPWPACL [Phage-998], for which the “Anti-CD28 Fab signal … of CD28” value worked out at 0.09.

LCNAGAMYKWPTCL [Phage-987]: the “Anti-CD28 Fab signal … of CD28” value turned out to be 0.06.

LCNAGAPYKWPTCL [Phage-1050]: the “Anti-CD28 Fab signal … of CD28” value came to 0.07.

TCSAGAHYPWPDCI [Phage-985]: the “Anti-CD28 Fab signal … of CD28” value is 0.07.

SCSAGASLQLSICL [Phage-992]: the “Anti-CD28 Fab signal … of CD28” value was found to be 0.06.

Consider TCSAGAGYPWPLCY [Phage-991], for which the “Anti-CD28 Fab signal … of CD28” value amounted to 0.08.

In the case of TCSAGATWPWPICL [Phage-997], the “Anti-CD28 Fab signal … of CD28” value was 0.08.

With TCSAGAMWTWPYCF [Phage-989], the “Anti-CD28 Fab signal … of CD28” value stood at 0.08.

In the case of TCRAGATYNWPFCL [Phage-996], the “Anti-CD28 Fab signal … of CD28” value was 0.07.

For MCSAGAMYPWPLCL [Phage-988], the “Anti-CD28 Fab signal … of CD28” value amounted to 0.07.

TCSAGATWAWPSCF [Phage-993]: the “Anti-CD28 Fab signal … of CD28” value was 0.1.

Take LCKPGVPNSWPTCL [Phage-984]: the “Anti-CD28 Fab signal … of CD28” value is 0.06.

With TCSAGFSYSWPACF [Phage-1000], the “Anti-CD28 Fab signal … of CD28” value was determined as 0.07.

Regarding TCAAGAYWTWPACF [Phage-990], the “Anti-CD28 Fab signal … of CD28” value was 0.09.

TCSAGAHYVWPMCF [Phage-994]: the “Anti-CD28 Fab signal … of CD28” value came out at 0.17.

These data come from US20260274955A1 (JANUX THERAPEUTICS, published 2026).
